Publication PMC4186839, “Streptomyces coelicolor SCO4226 Is a Nickel Binding Protein” (PLoS ONE, 2014)

Biological target: the molecule itself
Assay: crystal structure; Se-Met labelled apo-SCO4226 crystals (1.30 Å) and the same crystals soaked about 1 hr in 0.8 M sodium citrate pH 6.5 with 0.8 M NiSO4 (Ni-SCO4226, 2.04 Å); space group P21; one dimer in each asymmetric unit

B1: SCO4226 (natural protein, Streptomyces coelicolor A3(2), UniProt Q9FCE4 1-82, looked up)
chain: MAHFMDVHRGMHGITSDQLHQAHQADLAVEKDENVHFEQAWADPASGTIYCLSEGPSAEAVQRVHERAGHKADEIHEVPLSA
modifications: seleno-methionine in place of methionine (Se-Met substituted protein)
notes: SCO4226, 82-residue hypothetical protein encoded by the open reading frame SCO4226 of Streptomyces coelicolor A3(2); residues up to Ala82 (C-terminal carboxylate) are seen in the structure; No tag is named here; also called apo-SCO4226; Se-apo-SCO4226; source: E. coli B834 (DE3), Se-Met labelled, purified (nickel-chelating Sepharose, Superdex 75 gel filtration)
- stoichiometry N: 2
